Experimental data as given in patent US5985836A, “Alpha-1 proteinase inhibitor binding peptides” (Bayer Corporation, priority 1998, dated 1999).
Ends that are not written are not given here.

Columns and labels:
Immunoglobulin G (IgG) = experiment: Purification from Effluent II+III, IgG mass balance; assay type: binding, human; settings: 1 ml Eff. II+III, 4° C.
Experimental: (§1) Sequences 1-11 and 15 were assayed with Effluent II+III (Eff. II+III). Eff. II+III is a process intermediate in the Cohn plasma fractionation process. The feed stream contains 20% (by volume) ethanol, 20-25 mg/ml hSA and approximately 1 mg/ml AlPI. The stream also contains other proteins including anti-thrombin III (AT3), immunoglobin G (IgG), immunoglobin A (IgA), apolipoprotein alpha-1 (Apo A-1), transferrin (Trf), haptoglobin (Hpt), and alpha-1 acid glycoprotein (AAG) at concentrations ranging from 0.1-1 mg/ml.
(§2) The columns were assayed using the same technique as the hSA+AlPI experiments, allowing for a 10 minute residence time followed by a constant flow rate of 865 μl/min with step elutions of 1M NaCl, 3M NaCl, and 2% acetic acid. All experiments were conducted at 4° C. The mass balances for the injection of 1 ml Eff. […] The AlPI was enriched from 3% of the total protein in the feed to upwards of 50% in the acid eluate.

[1] = target: T1, apolipoprotein alpha-1 (Apo A-1) (Homo sapiens, UniProt P02647); experiment: Purification from Effluent II+III, Apo A-1 mass balance; assay type: binding; settings: 1 ml Eff. II+III, 4° C.
T1 construct: Eff; II+III is a process intermediate in the Cohn plasma fractionation process; tissue Bayer Corporation (Clayton, N.C.); host or cells: plasma fraction: Cohn Effluent II+III
T1 sequence (P02647 19-267): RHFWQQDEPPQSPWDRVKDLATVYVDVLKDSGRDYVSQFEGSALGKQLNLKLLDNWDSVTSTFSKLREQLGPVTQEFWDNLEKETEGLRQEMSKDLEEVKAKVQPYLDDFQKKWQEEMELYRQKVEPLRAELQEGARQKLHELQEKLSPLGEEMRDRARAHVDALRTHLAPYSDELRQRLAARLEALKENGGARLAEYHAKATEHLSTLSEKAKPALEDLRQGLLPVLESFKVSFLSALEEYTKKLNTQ
Experimental: as §1, §2

A1PI [2] = target: T2, A1PI (Homo sapiens, UniProt P01009); experiment: A1PI purification from 5 mg hSA + 1 mg A1PI on peptide column, A1PI mass balance; assay type: binding; settings: for Mass AlPI Eluted in Acid Eluate: nephelometry; for Percent Eluted by Fraction, 1M NaCl / Percent Eluted by Fraction, 2% Ac. Acid / Percent Eluted by Fraction, 3M NaCl / Percent Eluted by Fraction, Flow: relative to total eluted
T2 construct: Human plasma is currently the only approved source of therapeutic AlPI
T2 sequence (P01009 25-418): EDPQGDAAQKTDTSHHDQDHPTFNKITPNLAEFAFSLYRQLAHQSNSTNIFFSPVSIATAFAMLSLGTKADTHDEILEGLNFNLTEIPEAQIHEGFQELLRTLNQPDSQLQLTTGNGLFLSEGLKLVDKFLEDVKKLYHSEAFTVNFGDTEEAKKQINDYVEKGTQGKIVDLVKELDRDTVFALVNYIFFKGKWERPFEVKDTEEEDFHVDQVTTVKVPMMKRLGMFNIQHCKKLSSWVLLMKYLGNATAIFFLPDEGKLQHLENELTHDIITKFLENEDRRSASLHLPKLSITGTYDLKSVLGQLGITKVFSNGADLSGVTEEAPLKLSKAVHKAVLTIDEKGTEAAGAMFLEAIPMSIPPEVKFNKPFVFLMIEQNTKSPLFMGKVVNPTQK
Experimental: Confirmatory binding assays were performed in a column chromatographic format on a microbore HPLC using individual peptide sequences synthesized directly onto the Toyopearl 650 M Chelate resin which had been modified with Totda followed by an alanine residue (A-Totda-Toyopearl), at a final substitution density of 0.1 mmole/g resin. The resin was packed into 0.4×5 cm columns (Thomson, Springfield, Va.) and tested on the Michrom HPLC system (Michrom BioResources, Auburn, Calif.). The elution program for all trials utilized the following method. The column was pre-equilibrated with equilibration buffer (as above). 1 ml of sample was injected and allowed sufficient time to flowthrough the column using equilibration buffer. The column was then washed with step elutions of 1M NaCl and 3M NaCl in equilibration buffer. The column was exposed to equilibration buffer with 0.1M NaCl. Any remaining protein was eluted with elution buffer (2% by volume glacial acetic acid in water).
A Gilson FC204 fraction collector at the HPLC outlet collected individual eluates for further analysis. Fractions collected from the 2% acetic acid eluates were neutralized with 2M Tris, pH 10.5 to bring the pH to neutrality. The protein samples were reconstituted in equilibration buffer unless otherwise stated. The samples were analyzed by the integration of the absorbance at 280 nm or by immunonephelometry. The specific method of determination is presented for each figure.
Columns were assayed with a mixture of 5 mg human serum albumin (hSA)+1 mg AlPI at 4° C. (Table 4, Seq. ID 1-11, 15, 17) and 20° C. (Table 5, Seq. ID 1-10, 13, 15, 17). The chromatography method was modified to provide for a 10 minute residence time of sample in the column by decreasing the flow to 17 μl/min (10 cm/hr) upon injection. Following the incubation, the flow was set at 865 μl/min (413 cm/hr) for the step elutions of 1M NaCl, 3M NaCl, and 2% acetic acid. The mass balances presented are based upon immunonephelometry. The Percent Eluted value is protein-specific and based on the amount of the protein eluted in a […]

A1PI [3] = target: T2, A1PI; experiment: A1PI binding on peptide-resin column, injection of 1 mg A1PI in equilibration buffer; settings: 1 mg A1PI in equilibration buffer
Procedure, shortened: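 Peptides synthesized on A-Totda-Toyopearl chelate resin (0.1 mmole/g) packed in 0.4×5 cm columns; 1 mg A1PI injected in equilibration buffer at 4 °C or 20 °C, 865 or 523 μl/min. Flowthrough, 1M/3M NaCl washes and 2% acetic acid eluate quantified by A280 or immunonephelometry as percent of total eluted.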

Immunoglobulin A (IgA) = experiment: Purification from Effluent II+III, IgA mass balance; assay type: binding, human; settings: 1 ml Eff. II+III, 4° C.
Experimental: as §1, §2

A1PI [4] = target: T2, A1PI; experiment: Purification of A1PI from Effluent II+III on peptide column, A1PI mass balance; assay type: binding; settings: A1PI, 1 ml Eff. II+III, 4° C.
Procedure, shortened: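 Run at 4° C: Effluent II+III (1 ml, 20% ethanol) loaded with a 10 min residence. Elution at 865 μl/min, in sequence 1M NaCl, 3M NaCl, 2% acetic acid; A1PI, IgA, IgG and haptoglobin accounted for in each fraction.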

[5] = * as in Tables 4, 5 (below detection limit)
[6] = A1PI, 5 mg hSA + 1 mg A1PI, 4° C., * Below detection limit
[7] = A1PI, 5 mg hSA + 1 mg A1PI, 4° C.
[8] = A1PI, 5 mg hSA + 1 mg A1PI, 20° C., * Below detection limit
[9] = A1PI, 5 mg hSA + 1 mg A1PI, 20° C.

RLWRYG
Percent Eluted by Fraction, 1M NaCl (Immunoglobulin G (IgG)): 0% | Percent Eluted by Fraction, 2% Acetic Acid (Immunoglobulin G (IgG)): 0% | Percent Eluted by Fraction, 3M NaCl (Immunoglobulin G (IgG)): 0% | Percent Eluted by Fraction, Flow (Immunoglobulin G (IgG)): 100% | Mass Protein per Eluate Fraction, Flow (Immunoglobulin G (IgG); [5]): 0.27 mg | Percent Eluted by Fraction, 1M NaCl [1]: 0% | Percent Eluted by Fraction, 2% Acetic Acid [1]: 100% | Percent Eluted by Fraction, 3M NaCl [1]: 0% | Percent Eluted by Fraction, Flow [1]: 0% | Mass Protein per Eluate Fraction, 2% Acetic Acid [1, 5]: 0.35 mg | Mass AlPI Eluted in Acid Eluate (A1PI [2]; 250 μg AlPI injected with 5 mg hSA, 20° C.): 0.07 mg | Mass AlPI Eluted in Acid Eluate (A1PI [2]; 500 μg AlPI injected with 5 mg hSA, 20° C.): 0.15 mg | Mass AlPI Eluted in Acid Eluate (A1PI [2]; 1000 μg AlPI injected with 5 mg hSA, 20° C.): 0.39 mg | Mass Protein per Eluate Fraction, 1M NaCl (A1PI [2]; [6]): 0.50 mg | Mass Protein per Eluate Fraction, 2% Ac. Acid (A1PI [2]; [6]): 0.11 mg | Mass Protein per Eluate Fraction, Flow (A1PI [2]; [6]): 0.01 mg | Percent Eluted by Fraction, 1M NaCl (A1PI [2]; [7]): 80% | Percent Eluted by Fraction, 2% Ac. Acid (A1PI [2]; [7]): 18% | Percent Eluted by Fraction, 3M NaCl (A1PI [2]; [7]): 0% | Percent Eluted by Fraction, Flow (A1PI [2]; [7]): 2% | Mass Protein per Eluate Fraction, 1M NaCl (A1PI [2]; [8]): 0.42 mg | Mass Protein per Eluate Fraction, 2% Ac. Acid (A1PI [2]; [8]): 0.45 mg | Mass Protein per Eluate Fraction, 3M NaCl (A1PI [2]; [8]): 0.00 mg | Percent Eluted by Fraction, 1M NaCl (A1PI [2]; [9]): 48% | Percent Eluted by Fraction, 2% Ac. Acid (A1PI [2]; [9]): 52% | Percent Eluted by Fraction, 3M NaCl (A1PI [2]; [9]): 0% | Percent Eluted by Fraction, Flow (A1PI [2]; [9]): 0% | Percent A1PI Eluted by Fraction Based on Absorbance at 280 nm, 1M NaCl (A1PI [3]; 4° C.): 88% | Percent A1PI Eluted by Fraction Based on Absorbance at 280 nm, 2% Acetic Acid (A1PI [3]; 4° C.): 12% | Percent A1PI Eluted by Fraction Based on Absorbance at 280 nm, Flowthrough (A1PI [3]; 4° C.): 0% | Percent A1PI Eluted by Fraction, 1M NaCl (A1PI [3]; 20° C.): 88% | Percent A1PI Eluted by Fraction, 2% Acetic Acid (A1PI [3]; 20° C.): 12% | Percent A1PI Eluted by Fraction, Flowthrough (A1PI [3]; 20° C.): 0% | Percent Eluted by Fraction, 1M NaCl (Immunoglobulin A (IgA)): 0% | Percent Eluted by Fraction, 2% Acetic Acid (Immunoglobulin A (IgA)): 31% | Percent Eluted by Fraction, 3M NaCl (Immunoglobulin A (IgA)): 0% | Percent Eluted by Fraction, Flow (Immunoglobulin A (IgA)): 69% | Mass Protein per Eluate Fraction, 2% Acetic Acid (Immunoglobulin A (IgA); [5]): 0.09 mg | Mass Protein per Eluate Fraction, Flow (Immunoglobulin A (IgA); [5]): 0.19 mg | Percent Eluted by Fraction, 1M NaCl (A1PI [4]): 22% | Percent Eluted by Fraction, 2% Acetic Acid (A1PI [4]): 14% | Percent Eluted by Fraction, 3M NaCl (A1PI [4]): 0% | Percent Eluted by Fraction, Flow (A1PI [4]): 64% | Mass Protein per Eluate Fraction, 1M NaCl (A1PI [4]; [5]): 0.20 mg | Mass Protein per Eluate Fraction, 2% Acetic Acid (A1PI [4]; [5]): 0.13 mg | Mass Protein per Eluate Fraction, Flow (A1PI [4]; [5]): 0.59 mg
